Data from patent US20020045591A1, “Methods and therapeutic compositions for treating cancer” (priority 1998, published 2002).

Key:
[1] = tested on: β-catenin-dependent transactivation; experiment: LEF-1 consensus luciferase transactivation in SW480 cells (Example 2); type: cell-based, human; conditions: co-transfection, FIG. 19A
Experimental: (§1) Cell Culture and Transfections: Canine kidney epithelial cells MDCK, human fibrosarcoma HT1080, 293-T human embryonic kidney cells, Balb/C mouse 3T3 and human colon carcinoma SW480 cell lines were cultured in Dulbecco's modified Eagle's medium supplemented with 10% calf serum (Gibco, Grand Island, N.Y.) at 37° C. in the presence of 7% CO2. The human renal carcinoma cell line KTCTL60 was grown in RPMI medium and 10% calf serum. Cells were transiently transfected with the cDNA constructs described below, using Ca^2+-phosphate or lipofectamine (Gibco) and the expression of the transgene was assessed between 24 and 48 hours after transfection. In some experiments, the expression of the stably transfected NH2 terminus-deleted β-catenin (Δ57) was enhanced in HT1080 cells by overnight treatment with 2 mM sodium butyrate.
(§2) A plasmid encoding β-galactosidase (0.5 μg) was cotransfected to enable normalization for transfection efficiency. The relevant plasmid expressing catenin constructs (4.5 μg) was co-transfected with the reporter, or an empty expression vector was included. After 24-48 hours expression of the reporter (luciferase) and the control (β-galactosidase) genes were determined using enzyme assay systems from Promega (Madison, Wis.).

SW480 cells = experiment: Double immunofluorescence of β-catenin in SW480 cells (Example 2); type: cell-based, human; conditions: transfected SW480 cells, FIG. 19B
Excerpt: (§3) Immunofluorescence Microscopy: Cells cultured on glass coverslips were fixed with 3.7% paraformaldehyde in PBS and permeabilized with 0.5% Triton X-100. Monoclonal antibodies against human plakoglobin (11E4), β-catenin (5H10), the COOH terminus of β-catenin (6F9) and α-catenin (1G5) were described and kindly provided by Drs. M. Wheelock and K. Johnson (Univ. Toledo, Ohio). The secondary antibody was FITC- or Cy3-labeled goat anti mouse IgG (Jackson ImmunoResearch Laboratories, West Grove, Pa.). Polyclonal antiserum against β-catenin, monoclonal antibody against pan cadherin (CH-19), vinculin ([…]) and α-actinin (BM75.2) were from Sigma (Holon, Israel). Monoclonal antibodies against the splicing factor SC35 and the HA epitope were kindly provided by Dr. D. Helfman (CSH Laboratory, N.Y.). Polyclonal rabbit antibody against the VSV-G epitope was a gift from Dr. JC Perriard (ETH, Zurich, Switzerland). FITC-labeled goat anti-rabbit IgG antibody was from Cappel/ICN. Monoclonal antibody against LEF-1 was kindly provided by Dr. R. Grosschedl (Univ. Calif. San Francisco, Calif.). […] Images of the fluorescent cells were recorded with a cooled, scientific grade CCD camera (Photometrics, Tucson, Ariz.). Integrated fluorescent intensities in transfected and nontransfected cells were determined, after the background was subtracted.

[2] = tested on: LEF-1-driven transcription; experiment: LEF-1 consensus (TOPFLASH) transactivation in 293 cells; type: cell-based, human; conditions: FIG. 18B
Experimental: as §1, §2

endogenous β-catenin = experiment: Double immunofluorescence of endogenous β-catenin in transfected cells; type: cell-based; conditions: FIG. 18C
Excerpt: as §3

B1: α-catenin Δβ: HA-tagged mutant α-catenin lacking the β-catenin binding site (amino acids 118-166) (protein)
chain: MTAVTAGNVNFRWDPKSLEIRTLAVERLLEPLVTQVTTLVNTSNKGPSNKKRGRSKKAHVLAASVEQATENFLDKGDKIAKESQFLKEELVAAVEDVRKQGDLMKSASGEFADDPCSAGTEQDLGIQYKALKPEVDKLNIMAAKRQQELKDVGHRDQMAAARGILQKNVPILYTASQACLQHFDVAAYKANRDLIYKQLQQAVTGISNAAQATASDDAAQQQGGGGELAYALNNFDKQIIVDPSTFSEQRFRPSLEERLESIISGAALMADSSCTRDDRRERIVAECNAVRQALQDLLSEYMGNAGRKERSDALNSAIDKMTKKTRDLRRQLRKAVMDHVSDSFLETNVPLLVLIEAARNGNEKEVKEYTQVFREHANKLIEVANLACSISNNEEGVKLVRMSASQLEALCPQVINAALALAAKPQSKLAQENMELFKEQWEKQVRVLTDAVDDITSIDDFLAVSENHILEDVNKCVIALQEKDVDGLDRTAGAIRGRAARVIHVVTSEMDNYEPGVYTEKVLEATKLLSNTVMPRFTEQVEAAVEALSSDPAQPMDENEFIDRSRLVYDGIRDIRKAVLMIRTPEELDDSDFETEDFDVRSKTSIQTEDDQLIAGQSARAIMAQLPQEQKAKIAEAVASFQEEKSKLDAEVSKWDDSGNDIIVLAKQMCMIMMEMTDFTRGKGPLKNTSDVISAAKKIAEAGSRMDKLGRTIADHCPDSASKQDLLAYLQRIALYCHQLNICSKVKAEVQNLGGELVVSGVDSAMSLIQAAKNLMNAVVQTVKASYVASTKYQKSQGMASLNLPAVSWKMKAPEKKPLVKREKQDETQTKIKRASQKKHVNPVQALSEFKAMESI
modifications: left off: small tags and cut ends
effect on constitutive LEF-1 driven transcription [1]: abolished the transactivation inhibition capacity
effect on nuclear localization of β-catenin (SW480 cells): did not show this activity

B2: plakoglobin: HA-tagged human plakoglobin (protein, UniProt P14923 1-745, looked up)
Junction plakoglobin: MEVMNLMEQPIKVTEWQQTYTYDSGIHSGANTCVPSVSSKGIMEEDEACGRQYTLKKTTTYTQGVPPSQGDLEYQMSTTARAKRVREAMCPGVSGEDSSLLLATQVEGQATNLQRLAEPSQLLKSAIVHLINYQDDAELATRALPELTKLLNDEDPVVVTKAAMIVNQLSKKEASRRALMGSPQLVAAVVRTMQNTSDLDTARCTTSILHNLSHHREGLLAIFKSGGIPALVRMLSSPVESVLFYAITTLHNLLLYQEGAKMAVRLADGLQKMVPLLNKNNPKFLAITTDCLQLLAYGNQESKLIILANGGPQALVQIMRNYSYEKLLWTTSRVLKVLSVCPSNKPAIVEAGGMQALGKHLTSNSPRLVQNCLWTLRNLSDVATKQEGLESVLKILVNQLSVDDVNVLTCATGTLSNLTCNNSKNKTLVTQNSGVEALIHAILRAGDKDDITEPAVCALRHLTSRHPEAEMAQNSVRLNYGIPAIVKLLNQPNQWPLVKATIGLIRNLALCPANHAPLQEAAVIPRLVQLLVKAHQDAQRHVAAGTQQPYTDGVRMEEIVEGCTGALHILARDPMNRMEIFRLNTIPLFVQLLYSSVENIQRVAAGVLCELAQDKEAADAIDAEGASAPLMELLHSRNEGTATYAAAVLFRISEDKNPDYRKRVSVELTNSLFKHDPAAWEAAQSMIPINEPYGDDMDATYRPMYSSDVPLDPLEMHMDMDGDYPIDTYSDGLRPPYPTADHMLA
modifications: HA tag
LEF-1-driven transcription, fold lower extent than β-catenin [2]: 3 to 4 fold
nuclear translocation of endogenous β-catenin (endogenous β-catenin): resulted in nuclear translocation of endogenous β-catenin

B3: α-catenin: HA-tagged chicken α-catenin in the pCGN vector (protein)
chain: TAVTAGNVNFRWDPKSLEIRTLAVERLLEPLVTQVTTLVNTSNKGPSNKKRGRSKKAHVLAASVEQATENFLDKGDKIAKESQFLKEELVAAVEDVRKQGDLMKSASGEFADDPCSSVKRGNMVRAARALLSAVTRLLILADMADVYKLLVQLKVVEEGILKLRNAGTEQDLGIQYKALKPEVDKLNIMAAKRQQELKDVGHRDQMAAARGILQKNVPILYTASQACLQHFDVAAYKANRDLIYKQLQQAVTGISNAAQATASDDAAQQQGGGGELAYALNNFDKQIIVDPSTFSEQRFRPSLEERLESIISGAALMADSSCTRDDRRERIVAECNAVRQALQDLLSEYMGNAGRKERSDALNSAIDKMTKKTRDLRRQLRKAVMDHVSDSFLETNVPLLVLIEAARNGNEKEVKEYTQVFREHANKLIEVANLACSISNNEEGVKLVRMSASQLEALCPQVINAALALAAKPQSKLAQENMELFKEQWEKQVRVLTDAVDDITSIDDFLAVSENHILEDVNKCVIALQEKDVDGLDRTAGAIRGRAARVIHVVTSEMDNYEPGVYTEKVLEATKLLSNTVMPRFTEQVEAAVEALSSDPAQPMDENEFIDRSRLVYDGIRDIRKAVLMIRTPEELDDSDFETEDFDVRSKTSIQTEDDQLIAGQSARAIMAQLPQEQKAKIAEAVASFQEEKSKLDAEVSKWDDSGNDIIVLAKQMCMIMMEMTDFTRGKGPLKNTSDVISAAKKIAEAGSRMDKLGRTIADHCPDSASKQDLLAYLQRIALYCHQLNICSKVKAEVQNLGGELVVSGVDSAMSLIQAAKNLMNAVVQTVKASYVASTKYQKSQGMASLNLPAVSWKMKAPEKKPLVKREKQDETQTKIKRASQKKHVNPVQALSEFKAMESI
modifications: left off: small tags and cut ends
notes: HA-tagged chicken α-catenin in the pCGN vector
effect on constitutive LEF-1 driven transcription [1]: effectively blocked
effect on nuclear localization of β-catenin (SW480 cells): sequestered to the cytoplasm
